Consider one substance from article PMC5650531.

The assay deals with His6-CCCP-1 (C. elegans CCCP-1, full length) (C. elegans). Description: SEC-MALS.

“His6-CCCP-1 (C. elegans CCCP-1, full length) (natural protein)” showed a stoichiometry N of 2.
